Data set [1] deals with IVT-Nrf2;IVT-JDP2;IVT-MafK (;mouse;rat, UniProt Q60795;P97875;Q8K4B3 1-597;1-163;1-156, ||). As to the kind of experiment: EMSA; large complex with higher DNA-binding activity; EMSA: 5 ug GST fusion or 10 ng IVT protein, 25 C 30 min; 5% native PAGE in 0.5x TBE at 4 C; binding buffer, salt and pH not given. To be noted: tags: ;;, label: 32P 5' end (T4 kinase) as probe, blunt.

A further data set has as its target T1, IVT-Nrf2;IVT-JDP2 (;mouse, UniProt Q60795;P97875 1-597;1-163, |).
T1 sequence 1: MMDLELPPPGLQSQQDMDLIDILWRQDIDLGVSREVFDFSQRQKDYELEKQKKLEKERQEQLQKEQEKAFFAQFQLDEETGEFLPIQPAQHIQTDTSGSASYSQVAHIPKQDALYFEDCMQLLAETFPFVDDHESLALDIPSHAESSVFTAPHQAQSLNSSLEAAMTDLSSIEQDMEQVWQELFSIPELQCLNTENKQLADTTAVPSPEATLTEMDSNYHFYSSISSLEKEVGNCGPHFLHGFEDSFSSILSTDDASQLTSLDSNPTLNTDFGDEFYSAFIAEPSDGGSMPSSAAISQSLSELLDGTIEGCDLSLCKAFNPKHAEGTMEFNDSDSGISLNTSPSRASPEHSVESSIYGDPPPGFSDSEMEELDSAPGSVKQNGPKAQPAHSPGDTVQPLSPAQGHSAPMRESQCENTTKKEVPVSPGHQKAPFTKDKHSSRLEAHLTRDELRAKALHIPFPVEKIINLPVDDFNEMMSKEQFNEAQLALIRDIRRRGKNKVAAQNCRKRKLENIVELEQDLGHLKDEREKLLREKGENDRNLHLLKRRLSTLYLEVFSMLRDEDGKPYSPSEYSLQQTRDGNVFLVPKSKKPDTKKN
T1 sequence 2: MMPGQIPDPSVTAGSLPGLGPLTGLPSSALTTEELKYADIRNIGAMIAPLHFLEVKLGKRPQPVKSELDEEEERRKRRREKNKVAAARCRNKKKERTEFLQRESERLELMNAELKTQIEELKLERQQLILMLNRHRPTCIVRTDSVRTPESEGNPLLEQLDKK
As to the kind of experiment: EMSA; EMSA: 5 ug GST fusion or 10 ng IVT protein, 25 C 30 min; 5% native PAGE in 0.5x TBE at 4 C; binding buffer, salt and pH not given. The settings on record: protein: ivt;ivt; tags: ;; copies: 1;1; label: 32P 5' end (T4 kinase) as probe; blunt.

B1: human NQO1-ARE WT (dsDNA)
DNA 1: CAGTCACAGTGACTCAGCAGAATCT
DNA 2: AGATTCTGCTGAGTCACTGTGACTG
For the molecule B1, the binding result (in data set [1]; in the data set with IVT-Nrf2;IVT-JDP2) was “binds” each time.

Values taken from article PMC3847324, “Jun dimerization protein 2 is a critical component of the Nrf2/MafK complex regulating the response to ROS homeostasis”.
